Measurements as given in US20230398116A1, “Agent for reversing resistance to anticancer drugs” (Y'S AC CO., LTD., priority 2020, published 2023).
Changes are numbered by the printed parent chain.

T1: IL-26 (Homo sapiens, UniProt Q9NPH9)
T1 sequence (Q9NPH9 22-171): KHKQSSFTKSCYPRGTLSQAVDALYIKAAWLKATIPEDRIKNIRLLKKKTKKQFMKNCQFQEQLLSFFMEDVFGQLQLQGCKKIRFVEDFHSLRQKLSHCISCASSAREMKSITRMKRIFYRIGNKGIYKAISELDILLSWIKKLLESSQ

T2: EphA3/IL-26 interaction (Homo sapiens, UniProt Q9NPH9)
T2 construct: purchased R&D Systems; host or cells: IL-26 was purchased; EphA3 is endogenous on E0771 cells
T2 sequence (Q9NPH9 22-171): T1 sequence (Q9NPH9 22-171)

T3: interaction between IL-26 and EphA3 (Homo sapiens, UniProt Q9NPH9)
T3 construct: purchased R&D Systems; host or cells: IL-26 was purchased; EphA3 is endogenous on HCC70 cells
T3 sequence (Q9NPH9 22-171): T1 sequence (Q9NPH9 22-171)

B1: Hu69-10A-IgG1: humanized 69-10 IgG1/kappa antibody expressed by pHu69-10A (Hu69-10VH1 and Hu69-10VL1) (antibody, V domains shown)
VH: QVTLKESGPALVKPTQTLTLTCTFSGFSLSTSGMGVGWIRQPPGKALEWLAHIWWDDDKYYNPSLKSQLTISKDTSKNQVVLTMTNMDPVDTATYYCVRGGITATHYYAMDYWGQGTTVTVSS
VL: DIQMTQSPSSLSASVGDRVTITCLASQTIGTWLSWYQQKPGKAPKLLIYAATSLADGVPSRFSGSGSGTKFTFTISSLQPEDIATYYCQQLYSSPWTFGGGTKVEIK
B2: Hu69-10B-IgG1: humanized 69-10 IgG1/kappa antibody expressed by pHu69-10B (Hu69-10VH1 and Hu69-10VL2) (antibody, V domains shown)
VH: B1 VH
VL: B1 VL with K70D
B3: rhEphA3-Ig: recombinant human EphA3 Fc chimeric protein purchased from R&D Systems (protein)
chain: ELIPQPSNEVNLLDSKTIQGELGWISYPSHGWEEISGVDEHYTPIRTYQVCNVMDHSQNNWLRTNWVPRNSAQKIYVELKFTLRDCNSIPLVLGTCKETFNLYYMESDDDHGVKFREHQFTKIDTIAADESFTQMDLGDRILKLNTEIREVGPVNKKGFYLAFQDVGACVALVSVRVYFKKCPFTVKNLAMFPDTVPMDSQSLVEVRGSCVNNSKEEDPPRMYCSTEGEWLVPIGKCSCNAGYEERGFMCQACRPGFYKALDGNMKCAKCPPHSSTQEDGSMNCRCENNYFRADKDPPSMACTRPPSSPRNVISNINETSVILDWSWPLDTGGRKDVTFNIICKKCGWNIKQCEPCSPNVRFLPRQFGLTNTTVTVTDLLAHTNYTFEIDAVNGVSELSSPPRQFAAVSITTNQAAPSPVLTIKKDRTSRNSISLSWQEPEHPNGIILDYEVKYYEKQEQETSYTILRARGTNVTISSLKPDTIYVFQIRARTAAGYGTNSRKFEFETSPDSFSISGESSQ
modifications: left off: a dimerising Fc or GST
notes: recombinant human EphA3 Fc chimeric protein purchased from R&D Systems

Key:
HCC70 cells = assay: MTT assay / cell proliferation (confluence) assay, HCC70; type: cell-based, human
Description: (§1) Human and mouse breast cancer cells (1×10^4) were cultured in 10% FCS containing RPMI1640 medium on a 96-well flat bottom plate (Corning, Tewksbury, MA) at 37° C. for 24 hours, and then stimulated with IL-26 for 48 hours in the presence or absence of EGFR-TKI (gefitinib or erlotinib) at various concentrations, a signal inhibitor, and a neutralizing antibody. HUVECs were seeded in a 96-well flat bottom plate at 5×10^3 cells/well in a 2% FBS-containing EGM medium in which growth factors were reduced by half, and cultured at 37° C. for 12 hours. Thereafter, the medium was aspirated, and a recombinant human IL-26 dimer was adjusted to a final concentration of 10 ng/mL in a 2% FBS-containing EGM medium containing no growth factors, and added to the cells. The stimulation was started in the presence or absence of control human IgG and anti-human IL-26 antibodies, and the cells were cultured for 48 hours. Thereafter, a concentration of 20 μl or 1/10 of a 5 mg/ml MTT solution (Tetrazolium monosodium salt, WST-8) was added to each well, and the plate was allowed to stand for 1 hour. The absorbance at 450 nm/595 nm was measured using Microplate Reader (Bio-Rad, Hercules, CA) and data was analyzed with Microplate Manager 6 software (Bio-Rad).
Human and mouse breast cancer cells (1×10^4) were cultured in RPMI1640 medium containing 10% FCS for 24 hours at 37° C. on a 96-well flat bottom plate (Corning), and then stimulated with IL-26 (30 ng/ml) in the presence or absence of various concentrations of gefitinib and a neutralizing antibody. Cell proliferation was measured as cell confluence using IncuCyte ZOOM (Essen Bioscience, Ann Arbor, MI).

IL-26 [1] = target: T1, IL-26; assay: ELISA of antigen binding to human IL-26; parameters: purchased R&D Systems 1375-IL/CF; conditions: for EC50 values (binding to human IL-26, ELISA): plates coated with 0.5 μg/ml human IL-26 monomer, calculated using GraphPadPrism
Description: The antigen binding of purified Ch69-10-IgG1, Hu69-10A-IgG1, and Hu69-10B-IgG1 was analyzed by ELISA. ELISA plates were coated overnight at 4° C. with the addition of 0.5 μg/ml human IL-26 (recombinant human IL-26/AK155 monomer, Cat #1375-IL/CF, R&D Systems, Minneapolis, MN) at 100 μl/well in 0.2 M sodium carbonate buffer (pH 9.4). Wells were washed with the wash buffer and blocked with the ELISA buffer. Subsequently, 100 μl/well of test antibody (mouse 69-10, Ch69-10-IgG1, Hu69-10A-IgG1, or Hu69-10B-IgG1) serially diluted 2-fold in RPMI medium starting at 5 μg/ml was added to measure a binding with IL-26. After incubation at room temperature for 1 hour and washing the plates with a wash buffer, a 1/2,000-diluted HRP-conjugated goat anti-human kappa chain polyclonal antibody (Bethyl Laboratories) (for Ch69-10-IgG1, Hu69-10A-IgG1 and Hu69-10B-IgG1) or a 1/2,000-diluted HRP-labeled goat anti-mouse kappa chain polyclonal antibody (Bethyl Laboratories) (for mouse 69-10) in ELISA buffer was added at 100 μl/well to detect bound antibodies. After incubation at room temperature for 30 min and washing with the wash buffer, 100 μl/well of ABTS substrate (Sigma Aldrich) was added to start color development and 100 μl/well of 2% oxalic acid was added to stop the color development. The absorbance was measured at 405 nm.

IL-26 [2] = target: T1, IL-26; assay: ICAM-1 expression analysis of COLO205 (neutralizing activity of IL-26); type: cell-based; parameters: host or cells: added exogenously to COLO205 cells; conditions: for inhibition of IL-26-enhanced expression of ICAM-1: COLO205, recombinant human IL-26 monomer 20 ng/mL, 24 hours, flow cytometry (MFI); for inhibitory effect on IL-26 compared with m69-10 (ICAM-1 expression): COLO205, antibody doses of 2 μg/mL and 5 μg/mL
Description: COLO205 was seeded at 5×10^4 cells/well in a 96-well flat bottom plate, and stimulated with recombinant human IL-26 monomer (20 ng/mL) in the presence or absence of control human IgG or anti-human IL-26 antibody. After 24 hours of culture, the cells were collected and washed with ice-cold PBS (FCM buffer) containing 1% FBS and 0.1% sodium azide. Thereafter, a solution prepared by diluting a PE-labeled mouse anti-human ICAM-1 monoclonal antibody (clone 15.2, catalog number 50-0549-T100) of Bay bioscience (Kobe, Japan) or a PE-labeled mouse Igl,k isotype control monoclonal antibody (clone MOPC-21, catalogue number 400114) of BioLegend with FCM buffer to 5 μg/mL, was added at 50 μL/sample, and the mixture was allowed to stand at 4° C. for 25 minutes. Thereafter, the cells were washed with ice-cold FCM buffer, then measured with FACSCalibur, and the obtained data was analyzed with FlowJo.

[3] = Heterogeneous chronic GVHD model (NOG mice transplanted with human umbilical cord blood mononuclear cells); type: in vivo, mouse
Description: On day −1, NOG mice were irradiated with a sublethal dose (100 cGy). On day 0, 5×10^6 human umbilical cord blood mononuclear cells were transplanted from the tail vein of NOG mice. Survival of the mice was assessed daily and body weight was measured twice a week. In an antibody treatment experiment, the control human IgG or anti-human IL-26 monoclonal antibody (the mouse antibody m69-10 and the humanized antibody h69-10A) was administered from day +28 of transplantation when clinical signs/symptoms of mild GVHD began to appear. The antibody solution was adjusted to a concentration of 1 mg/mL with sterile PBS, and 200 μL (200 μg) of the antibody solution per mouse was intraperitoneally injected twice a week. On day +56 after transplantation, the mice were sacrificed, and the skin, lung, liver, and large intestine were collected.
NOG mice were dissected, and then the skin, lung, liver, and large intestine on the back were excised, fixed in 10% formalin solution (Wako) at room temperature, and embedded in paraffin. Thereafter, a section having a thickness of 5 μm was prepared and placed on a glass slide, and stained with hematoxylin and eosin (H&E). In addition, in order to confirm the proliferation of collagen fibers, Azan-Mallory staining was performed. Images of the optical microscope were taken with an Olympus BX41 microscope (OLYMPUS, Tokyo, Japan) connected with an Olympus digital camera DP25, and CellSens software was used.

IL-26 [4] = target: T1, IL-26; assay: MTT assay of HUVECs stimulated with IL-26 (neutralizing activity of IL-26); type: cell-based; parameters: purchased R&D Systems; host or cells: added exogenously to HUVECs; conditions: antibody dose of 3 μg/mL
Description: as §1

EphA3/IL-26 interaction = target: T2, EphA3/IL-26 interaction; assay: Immunofluorescence of rhIL-26-Alexa 488 and cell surface EphA3 on E0771 cells; type: cell-based, mouse; conditions: E0771, antibodies 10 μg/ml, FIGS. 19 and 20
Description: (§2) E0771 and HCC70 cells (1×10^5) were cultured for 24 hours in RPMI1640 medium with 10% FCS on Lab-Tek chamber slides (Thermo Fisher Scientific). The cultured cells were stimulated with Alexa Fluor 488 labeled IL-26 (30 ng/ml) in the presence or absence of recombinant human and mouse EphA3-Ig for 1 hour. HCC70 cells were stimulated with IL-26 (30 ng/ml) in the presence or absence of gefitinib (40 μM), a signal inhibitor, and a neutralizing antibody for 24 hours. Subcutaneous tumor samples obtained from mice were fixed in 4% paraformaldehyde (Thermo Fisher Scientific) and embedded in OCT compound (Tissue-Tek (registered trademark), Sakura Finetek, Japan). Cells and slides were immunostained with each antibody and observed using a Zeiss inverted microscope and Axiovision 2.0 program (Carl Zeiss, Germany). The fluorescence intensity was quantified with Image-J software (NIH). The images were captured using a 100×400× objective.

[5] = target: T3, interaction between IL-26 and EphA3; assay: Immunofluorescence of rhIL-26-Alexa488 and cell surface EphA3 on HCC70 cells; type: cell-based; conditions: HCC70, rhIL-26-Alexa488 30 ng/ml, 50 μg/ml each, 1 hour, FIG. 21
Description: as §2

[6] = 200 μg per mouse i.p. twice a week from day 28, data not shown

Row | Molecule | reversal of inhibitory effect of IL-26 on gefitinib-induced suppression of cell proliferation (HCC70 cells; HCC70, IL-26 30 ng/ml, gefitinib 40 μM, 48 hours, MTT, FIG. 59) | inhibitory effect on IL-26 compared with m69-10 (HCC70 proliferation) (HCC70 cells; antibody doses of 5 μg/mL and 20 μg/mL) | EC50 values (binding to human IL-26, ELISA) (IL-26 [1]) [µg/mL] | binding to IL-26 (absorption value) (IL-26 [1]; recombinant human IL-26 immobilized on a plate, FIG. 56) | inhibition of IL-26-enhanced expression of ICAM-1 (IL-26 [2]) | inhibitory effect on IL-26 compared with m69-10 (ICAM-1 expression) (IL-26 [2]) | body weight loss [3, 6] | number of survival days [3, 6] | therapeutic effect compared with m69-10 ([3]; FIG. 60) | inhibitory effect on IL-26 compared with m69-10 (HUVEC proliferation) (IL-26 [4]) | blocking of inhibitory effect of IL-26 on suppression of cell proliferation by gefitinib (HCC70 cells; HCC70, IL-26 30 ng/ml, gefitinib 40 μM, 48 hours, Abs or rhEphA3-Ig 50 μg/ml each, MTT, FIG. 22) | inhibition of colocalization of IL-26 with EphA3 (EphA3/IL-26 interaction) (EphA3/IL-26 interaction) | inhibition of interaction between IL-26 and EphA3 [5]
1 | B1 | reversed the inhibitory effect of IL-26 on gefitinib-induced suppression of cell proliferation in an antibody dose-dependent manner | significantly higher inhibitory effect on IL-26 than the original mouse antibody m69-10 | 0.304 | stronger binding to IL-26 than an original mouse antibody m69-10 | partially inhibited | significantly higher inhibitory effect on IL-26 than the original mouse antibody m69-10 | clearly reduced | significantly prolonged | higher therapeutic effect than the original mouse antibody m69-10 | significantly higher inhibitory effect on IL-26 than the original mouse antibody m69-10 | – | – | –
2 | B2 | – | – | 0.396 | – | partially inhibited | significantly higher inhibitory effect on IL-26 than the original mouse antibody m69-10 | – | – | – | significantly higher inhibitory effect on IL-26 than the original mouse antibody m69-10 | – | – | –
3 | B3 | – | – | – | – | – | – | – | – | – | – | potently blocked the inhibitory effect of IL-26 on suppression of cell proliferation by gefitinib | inhibited EphA3/IL-26 interaction | clearly inhibited the interaction between IL-26 and EphA3
